B1: POU domain, class 4, transcription factor 1, residues 266 to 347; numbered along this chain, Q01851 (parent)
chain: RELEAFAERFKQRRIKLGVTQADVGSALANLKIPGVGSLSQSTICRFESLTLSHNNMIALKPILQAWLEEAEGAQREKMNKP

Variants of: B1
Test: abundance fitness (aPCA) (normalised: wild type 0, dead -1); higher = more abundant; growth selection in yeast, the domain comes from the species named
Details: Homo sapiens

Abundance fitness of substitutions, site by site:
E69: Y -0.171 | V -0.073 | G -0.207 | I 0.056 | D 0.011 | P -0.612 | L -0.036 | C -0.168 | F -0.174 | T -0.085 | W -0.224 | N -0.022 | Q -0.018 | S -0.054 | R -0.111 | A -0.022 | H -0.076 | K -0.036
K61: I 0.165 | D -0.635 | W -0.07 | N -0.388 | F -0.349 | P -1.19 | H -0.265 | A -0.074 | C -0.012 | M -0.1 | L -0.198 | G -0.305 | S -0.149 | T -0.132 | Y 0.007 | R -0.051 | E -0.022 | V -0.105 | Q 0.018
A59: K 0.035 | E -0.026 | F 0 | W -0.198 | Q 0.056 | N -0.278 | D -0.052 | G -0.103 | S -0.016 | I -0.021 | T -0.011 | M 0.009 | C -0.054 | V 0.011 | Y -0.072 | R -0.051 | L -0.027 | H 0.227 | P -0.368
L68: E -0.672 | H -0.329 | M -0.112 | S -0.497 | R -0.774 | V -0.074 | Q -0.568 | P -0.715 | G -0.821 | I 0.037 | Y -0.304 | T -0.459 | C -0.29 | W -0.626
N56: K 0.015 | D -0.018 | S 0.046 | G -0.023 | P -0.301 | A 0.055 | H 0.004 | W -0.062 | M 0.078 | L 0.058 | I -0.049 | F -0.136 | Y 0.23 | E 0.032 | C 0.145 | Q 0.083 | T -0.029 | V 0.066
I58: W -0.107 | F -0.075 | D -0.167 | G -0.147 | N 0.021 | H -0.169 | Y -0.118 | A 0.041 | E -0.023 | T 0.033 | S -0.013 | L -0.031 | C -0.094 | M -0.042 | V -0.035
A66: V -0.12 | E 0.012 | M -0.041 | I -0.141 | K 0.044 | T -0.012 | Q -0.046 | Y -0.104 | P -0.619 | F -0.113 | D 0.013 | R -0.022 | W -0.192 | C -0.049 | G -0.029 | H 0.001 | S -0.005 | N -0.017 | L -0.125
E70: R -0.046 | P -0.657 | F -0.198 | M -0.1 | W -0.311 | D -0.018 | S -0.006 | Q -0.015 | G -0.061 | H -0.077 | Y -0.145 | I -0.161 | V -0.176 | L -0.18 | K 0.004 | C -0.125 | A -0.07 | T -0.026
W67: F 0.018 | T -0.805 | Q -0.712 | L -0.475 | V -0.412 | D -0.425 | E -0.806 | G -0.727 | P -0.646 | A -0.406 | C -0.939 | N -0.65 | R -0.639 | Y -0.175 | K -0.606
E72: W -0.415 | H -0.456 | G -0.267 | P -0.348 | K -0.518 | L -0.431 | D -0.259 | N -0.35 | V -0.35 | T -0.244 | C -0.416 | R -0.421 | Q -0.21 | Y -0.138 | M -0.349 | S -0.229 | I -0.179
M57: H -0.399 | Q -0.197 | T -0.374 | C -0.268 | F -0.309 | N -0.19 | E -0.706 | L -0.031 | D -0.935 | R -0.775 | V -0.273 | G -0.449 | I -0.16 | S -0.309 | A -0.132 | P -0.606 | K -0.901 | W -0.289
H54: P 0.041 | T 0.08 | Q -0.02 | Y 0.057 | W -0.014 | R 0.053 | S 0.057
G73: S -0.027 | Y 0.144 | R -0.054 | P -0.259 | Q 0.043 | H -0.068 | A 0.015 | W -0.205 | K -0.046 | N 0.003 | D -0.105 | E 0.125 | L 0.056 | T 0.063 | M -0.065 | V 0.071 | I 0.121 | C -0.013 | F -0.056
Q65: P -0.98 | M -0.056 | E 0.061 | C -0.14 | R -0.162 | L -0.073 | F -0.112 | T -0.06 | H -0.047 | D 0.01 | G -0.086 | I -0.105 | Y -0.075 | A -0.041 | N -0.078 | K -0.049 | W -0.144
L64: C -0.499 | T -0.76 | Y -0.144 | D -0.652 | Q -0.533 | N -0.431 | E -0.709 | M -0.323 | G -0.672 | P -0.711 | A -0.513 | I -0.339 | F -0.337 | W -0.948 | V -0.336 | S -0.793
A74: P -0.05 | F -0.035 | L 0.006 | M -0.016 | H -0.009 | D -0.027 | N -0.019 | K -0.009 | E 0.025 | C 0.012 | G -0.044
P62: Y -0.562 | T -0.192 | I -0.816 | D -0.188 | R -0.347 | G -0.2 | K -0.243 | A -0.366 | S -0.243 | F -0.518 | Q -0.393 | M -0.687 | L -0.524 | C -0.429 | N -0.286 | E -0.413 | V -0.485
I63: P -0.203 | L -0.113 | M -0.168 | V 0.002 | G -0.274 | E -0.295 | D -0.41 | T 0.034 | K -0.137 | R -0.154 | C -0.028 | Q -0.247 | N -0.17 | F 0.027 | S -0.204
L60: E -0.581 | N -0.223 | W -0.605 | S -0.253 | V -0.029 | F -0.355 | G -0.696 | H -0.392 | T -0.452 | A -0.344 | C 0.074 | I -0.303
A71: S -0.079 | D -0.572 | K 0.072 | R -0.051 | Y -0.353 | E -0.062 | W -0.186 | F -0.289 | N 0.044 | M -0.005 | I -0.18 | G -0.379 | T 0.062 | H -0.146 | P -0.588 | Q -0.051
N55: P 0.104 | G 0.044 | A 0.023 | L -0.016 | I -0.093 | K -0.038 | R 0.045 | V -0.051 | T 0.034 | C -0.036 | F -0.18 | H -0.06 | W -0.023 | D -0.094
